# Experiments:
# D3-12-N1 = assay: ELISA
# D3-03-N1 = assay: ELISA
# D3-24-N1 = assay: ELISA
# D2-14-N1 = assay: ELISA
# D1-10-N1 = assay: ELISA
# D3-23-N1 = assay: ELISA
# D2-14-N1 (human) = assay: SPR
# Chain of D2-14-N1 (human) (heavy, as listed by the source): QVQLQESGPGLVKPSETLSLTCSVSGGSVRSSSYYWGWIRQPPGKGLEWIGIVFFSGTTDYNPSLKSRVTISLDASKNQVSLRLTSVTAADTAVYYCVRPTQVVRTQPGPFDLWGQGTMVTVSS
Kd (D2-14-N1 (human)) [pM],Substance,percent of parent (D3-12-N1) [%],percent of parent (D3-03-N1) [%],percent of parent (D3-24-N1) [%],percent of parent (D2-14-N1) [%],percent of parent (D1-10-N1) [%],percent of parent (D3-23-N1) [%]
,recombinant full-length IsdB (from UniProt Q2FHV2) Y165R,3,3,5,3,3,3
4 to 12,recombinant full-length IsdB (natural protein),,,,,,

# Reference: article PMC5120205
